Measured values taken from patent US20160090425.

Biological target: six other anti-C1s binding antibodies

B1: human C1s enzyme purified from human plasma (Complement Technology Inc., Cat # A103) (protein)
chain: EPTMYGEILSPNYPQAYPSEVEKSWDIEVPEGYGIHLYFTHLDIELSENCAYDSVQIISGDTEEGRLCGQRSSNNPHSPIVEEFQVPYNKLQVIFKSDFSNEERFTGFAAYYVATDINECTDFVDVPCSHFCNNFIGGYFCSCPPEYFLHDDMKNCGVNCSGDVFTALIGEIASPNYPKPYPENSRCEYQIRLEKGFQVVVTLRREDFDVEAADSAGNCLDSLVFVAGDRQFGPYCGHGFPGPLNIETKSNALDIIFQTDLTGQKKGWKLRYHGDPMPCPKEDTPNSVWEPAKAKYVFRDVVQITCLDGFEVVEGRVGATSFYSTCQSNGKWSNSKLKCQPVDCGIPESIENGKVEDPESTLFGSVIRYTCEEPYYYMENGGGGEYHCAGNGSWVNEVLGPELPKCVPVCGVPREPFEEKQRIIGGSDADIKNFPWQVFFDNPWAGGALINEYWVLTAAHVVEGNREPTMYVGSTSVQTSRLAKSKMLTPEHVFIHPGWKLLEVPEGRTNFDNDIALVRLKDPVKMGPTVSPICLPGTSSDYNLMDGDLGLISGWGRTEKRDRAVRLKAARLPVAPLRKCKEVKVEKPTADAEAYVFTPNMICAGGEKGMDSCKGDSGGAFAVQDPNDKTKFYAAGLVSWGPQCGTYGLYTRVKNYVDWIMKTMQENSTPRED
- C1s-mediated C4 α-chain cleavage (SDS gel), antibody at approximately 10-fold molar excess: six other anti-C1s binding antibodies, including the C1s binding antibody 3F8 (see FIG. 1, Example 2), did not show inhibitory activity
